# Data from US20200199244A1.
# Assays:
# [1] = molecular target: biotinylated human CD40 (human) (UniProt P25942); assay: SPR, BIAcore 3000 COINJECT over biotinylated human CD40; mixture after first injection; competitor BMS3h-193-12
# [2] = molecular target: biotinylated human CD40 (human) (UniProt P25942); assay: SPR, BIAcore 3000 COINJECT over biotinylated human CD40; mixture after first injection; competitor G28-5 Fab
# [3] = molecular target: biotinylated human CD40 (human) (UniProt P25942); assay: SPR, BIAcore 3000, Fab injected alone over biotinylated human CD40 on SA chip
# [4] = molecular target: biotinylated human CD40 (human) (UniProt P25942); assay: SPR, BIAcore 3000 COINJECT over biotinylated human CD40; mixture after first injection; competitor BMS3h-56-5
# [5] = molecular target: biotinylated human CD40 (human) (UniProt P25942); assay: SPR, BIAcore 3000, 1 µM Fab alone over biotinylated human CD40
# [6] = molecular target: biotinylated human CD40 (human) (UniProt P25942); assay: SPR, BIAcore 3000 COINJECT over biotinylated human CD40; mixture after first injection; competitor Chi220 Fab
# biotinylated human CD40 (human), sequence (P25942 21-193 limits assumed): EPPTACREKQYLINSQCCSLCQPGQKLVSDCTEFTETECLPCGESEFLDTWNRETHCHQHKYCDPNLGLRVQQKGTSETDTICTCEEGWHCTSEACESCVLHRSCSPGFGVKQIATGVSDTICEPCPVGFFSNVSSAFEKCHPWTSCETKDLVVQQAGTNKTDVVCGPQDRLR
Second Injection (% of single dAb/Fab RU) [1],Second Injection (% of single dAb/Fab RU) [2],RU first dAb/Fab alone [3],Second Injection (% of single dAb/Fab RU) [4],Single dAb RU [5],Second Injection (% of single dAb/Fab RU) [6],Substance
98%,39%,1090 RU,98%,–,–,Chi220 Fab'
93%,–,730 RU,94%,730 RU,11%,G28-5 Fab'
